Test results from the RNAGym collection of RNA variant scans (doi:10.7554/elife.80360).

B1: Hammerhead Ribozyme (parent)
chain: ACCGGAUGUGCUUUCCGGUCUGAUGAGUCCGUGAGGACGAAACAG

Variants of: B1
Test: self-cleavage, relative activity (ratio to wild type); higher = more cleavage; co-transcriptional
With C16G A44U the self-cleavage was 0.335. U21G G45C showed a self-cleavage of 0.278. U14C G33C gave a self-cleavage of 0.851. For A1C C15G, the self-cleavage was 0.43. C2U A44G showed a self-cleavage of 1.55. In the case of A1G G36C, the self-cleavage is reported as 0.654. With G4C C20A the self-cleavage was 0.244. With C20U A23C the self-cleavage was 0.353. G8U A41G showed a self-cleavage of 0.328. In the case of U7A C43A, the self-cleavage is reported as 0.317. G4U C30A gave a self-cleavage of 0.4. Work on A6C A34U yielded a self-cleavage of 0.529. Variant A6C U19A has a self-cleavage of 0.265. Work on G8C G18U yielded a self-cleavage of 0.611. U14C A34C gave a self-cleavage of 0.791. For G10U C11A, the self-cleavage was 1.25. Variant G39C G45C has a self-cleavage of 0.368. With U21A G25A the self-cleavage was 0.334. With C11G the self-cleavage was 1.12. G36U G45C gave a self-cleavage of 0.454. Work on C16A U28G yielded a self-cleavage of 0.638. In the case of C16A U28C, the self-cleavage is reported as 0.722. U9G A42G gave a self-cleavage of 0.323. U9G C38G gave a self-cleavage of 0.486. In the case of C15U C43U, the self-cleavage is reported as 0.483. In the case of G25C G33A, the self-cleavage is reported as 0.31. U21G A37U showed a self-cleavage of 0.417. G25C U32G showed a self-cleavage of 0.281. G25C U32C showed a self-cleavage of 0.342. C16A G25A gave a self-cleavage of 0.347. For C38A G45U, the self-cleavage was 0.461. In the case of C15U A23C, the self-cleavage is reported as 0.36. C2G G25C gave a self-cleavage of 0.267. Variant C11A A26U has a self-cleavage of 1.03. Work on G5C A6G yielded a self-cleavage of 0.437. A1C A42U gave a self-cleavage of 0.322. For A44C, the self-cleavage was 0.663. G4C C29A showed a self-cleavage of 0.317. In the case of G33A G45U, the self-cleavage is reported as 0.955. With C3G G18C the self-cleavage was 0.335. For U28G G39C, the self-cleavage was 0.323. In the case of A42G, the self-cleavage is reported as 0.336. C2U G5C gave a self-cleavage of 0.364. A1C A26C showed a self-cleavage of 0.338. For G18U A26G, the self-cleavage was 0.339. For U28C A40C, the self-cleavage was 0.44. C3G G31U showed a self-cleavage of 0.609. With G8A C20U the self-cleavage was 0.594. G4C A26U showed a self-cleavage of 0.427. C20G A41U showed a self-cleavage of 0.371. G8C G36C gave a self-cleavage of 0.791. Variant G10U C38G has a self-cleavage of 0.848. In the case of C2A G27U, the self-cleavage is reported as 0.32. A6G G27U showed a self-cleavage of 0.356. For G5C G17U, the self-cleavage was 0.381. Variant U12A C20A has a self-cleavage of 0.313. U12G C15U showed a self-cleavage of 0.823. A37C G39U gave a self-cleavage of 0.281. With G25U A44C the self-cleavage was 0.42. Variant A34U A44C has a self-cleavage of 0.447. For A41U G45C, the self-cleavage was 0.392. Variant C2G G4C has a self-cleavage of 0.233. Variant G17C C29G has a self-cleavage of 0.349. With C15A A34G the self-cleavage was 0.96. In the case of U14C A23U, the self-cleavage is reported as 0.341. G4C A37G showed a self-cleavage of 0.516. Variant G10A U24G has a self-cleavage of 0.875. Variant C30U G31A has a self-cleavage of 1.02. G8A G25C gave a self-cleavage of 0.276. Variant A26G U32C has a self-cleavage of 0.328. For G22A A23U, the self-cleavage was 0.343. U13A A42G gave a self-cleavage of 0.344. For C11G G39U, the self-cleavage was 0.301. Variant G10U C30G has a self-cleavage of 1. U28A A41G gave a self-cleavage of 0.398. G35C G45U showed a self-cleavage of 0.498. A1G C43U showed a self-cleavage of 0.597. With U12G A41G the self-cleavage was 0.339. With C20A A41G the self-cleavage was 0.309. Variant G10C A41U has a self-cleavage of 0.358. For U7G G45U, the self-cleavage was 0.526. C15G G18U showed a self-cleavage of 0.293. For U13G G45U, the self-cleavage was 0.702. Variant G17C U19G has a self-cleavage of 0.337. C29U G31C gave a self-cleavage of 0.673. G31A G45U showed a self-cleavage of 0.805. U32G A37C gave a self-cleavage of 0.431. Work on G18C U21C yielded a self-cleavage of 0.284. Variant U12C A37G has a self-cleavage of 0.915. C11G A40C showed a self-cleavage of 0.838. A23U G25A gave a self-cleavage of 0.267. In the case of U7G G27A, the self-cleavage is reported as 0.81. A6U U32A showed a self-cleavage of 0.605. With U28A G31U the self-cleavage was 0.92. U28A G35U showed a self-cleavage of 0.489. Work on C30A A44C yielded a self-cleavage of 0.317. C30A A44G gave a self-cleavage of 0.819. U9G G22C showed a self-cleavage of 0.399. Work on U28G G31U yielded a self-cleavage of 0.932. G31C A37G gave a self-cleavage of 0.968. C15U U24G gave a self-cleavage of 1.35. Variant A1G U28C has a self-cleavage of 1.79. Variant G10A A34C has a self-cleavage of 1.2. C29U G45C gave a self-cleavage of 0.443. Variant G4A A41U has a self-cleavage of 0.382. Variant C30U U32A has a self-cleavage of 0.892. Work on C11A A40U yielded a self-cleavage of 0.29. G8A U32G showed a self-cleavage of 1.09. G8A U32C gave a self-cleavage of 1.02. U24G A34U gave a self-cleavage of 0.679. A1U G22C showed a self-cleavage of 0.22. For A1C G45U, the self-cleavage was 0.437. Variant G17U C20U has a self-cleavage of 0.501. G4C A40G showed a self-cleavage of 0.243. Work on U24C A42C yielded a self-cleavage of 0.316. In the case of C2U C15U, the self-cleavage is reported as 0.76. With C2U C15A the self-cleavage was 0.397. With C11G G27C the self-cleavage was 0.938. Variant U14A A23G has a self-cleavage of 0.351. With A41G A42G the self-cleavage was 0.335. C3A C43U gave a self-cleavage of 0.378. C15A G33C showed a self-cleavage of 0.953. Variant U7C U32A has a self-cleavage of 1.02. In the case of G4A U32G, the self-cleavage is reported as 0.436. Variant U14G G18U has a self-cleavage of 0.522. C29G C43G gave a self-cleavage of 0.275. In the case of C29G C43U, the self-cleavage is reported as 0.328. Variant A1C U21A has a self-cleavage of 0.343. Work on U28A yielded a self-cleavage of 0.822. Work on C16A C38U yielded a self-cleavage of 0.85. In the case of G22A A34U, the self-cleavage is reported as 0.309. With G35U G36A the self-cleavage was 0.525. For C11A U19C, the self-cleavage was 0.603. For U9G G39U, the self-cleavage was 0.319. With G4C G25U the self-cleavage was 0.289. In the case of A1C G4A, the self-cleavage is reported as 0.406. C16G U24G showed a self-cleavage of 0.611. Variant C30U A37C has a self-cleavage of 1.08. For G18C A37G, the self-cleavage was 0.398. Work on G10U U12G yielded a self-cleavage of 0.773. In the case of U7G A40U, the self-cleavage is reported as 0.401. A6C U14C showed a self-cleavage of 0.495. A23U G31A gave a self-cleavage of 0.631. With C11A G17C the self-cleavage was 0.506. For A1C G31A, the self-cleavage was 0.454. With C2G A26C the self-cleavage was 0.341. In the case of A6G A26C, the self-cleavage is reported as 0.396. Variant C11U G17C has a self-cleavage of 0.43. With G8A G22U the self-cleavage was 0.384. In the case of A6G A44G, the self-cleavage is reported as 1.08. With U7C G36C the self-cleavage was 0.348. With G36A A40C the self-cleavage was 0.319. A1U G27A gave a self-cleavage of 0.437. For A23U A40C, the self-cleavage was 0.348. With A23G G39C the self-cleavage was 0.33. In the case of G18A G35C, the self-cleavage is reported as 0.479. G36U C38G gave a self-cleavage of 0.331. C11U U12A showed a self-cleavage of 1.3. U32G G45U showed a self-cleavage of 0.587. For A34U, the self-cleavage was 0.926. With U7A U21C the self-cleavage was 0.628. U28A G39C gave a self-cleavage of 0.382. Variant U14C G27U has a self-cleavage of 0.331. U32A A41G gave a self-cleavage of 0.358. C30G A44C showed a self-cleavage of 0.363. U24G G25C gave a self-cleavage of 0.294. Variant U14A C16A has a self-cleavage of 0.592.
